Calls of active or inactive are those of the source. No cut-off for these calls is given here.
Assays:
Tyrosinase [1] = target: T1, Tyrosinase (Agaricus bisporus, UniProt O42713); test: Inhibition of mushroom tyrosinase using L-tyrosine as substrate assessed as monophenolase activity by spectrophotometric analysis
T1 sequence (O42713 whole entry): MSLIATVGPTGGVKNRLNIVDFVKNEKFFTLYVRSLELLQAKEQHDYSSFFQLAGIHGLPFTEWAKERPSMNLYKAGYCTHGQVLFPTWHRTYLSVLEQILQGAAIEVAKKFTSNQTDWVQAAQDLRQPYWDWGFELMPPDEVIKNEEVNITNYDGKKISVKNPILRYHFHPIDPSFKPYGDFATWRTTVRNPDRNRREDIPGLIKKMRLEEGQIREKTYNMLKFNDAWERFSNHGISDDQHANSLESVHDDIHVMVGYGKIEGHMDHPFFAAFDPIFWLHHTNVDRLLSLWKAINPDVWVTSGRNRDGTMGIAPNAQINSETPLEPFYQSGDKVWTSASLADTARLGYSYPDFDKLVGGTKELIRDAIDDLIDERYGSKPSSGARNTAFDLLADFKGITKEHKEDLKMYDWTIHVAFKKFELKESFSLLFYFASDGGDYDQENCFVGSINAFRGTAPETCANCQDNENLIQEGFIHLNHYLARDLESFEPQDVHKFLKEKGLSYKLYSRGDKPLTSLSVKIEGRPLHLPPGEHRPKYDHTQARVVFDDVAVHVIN

Tyrosinase [2] = target: T1, Tyrosinase; test: Inhibition of mushroom tyrosinase using L-dopa as substrate assessed as diphenolase activity by spectrophotometric analysis
[3] = target: T2, Tyrosinase (Agaricus bisporus) (UniProt O42713); test: Substrate activity at mushroom tyrosinase using TBC as substrate assessed as increase in TBC oxidation at 0.05 to 0.50 mM by spectrophotometric analysis
T2 sequence (whole entry): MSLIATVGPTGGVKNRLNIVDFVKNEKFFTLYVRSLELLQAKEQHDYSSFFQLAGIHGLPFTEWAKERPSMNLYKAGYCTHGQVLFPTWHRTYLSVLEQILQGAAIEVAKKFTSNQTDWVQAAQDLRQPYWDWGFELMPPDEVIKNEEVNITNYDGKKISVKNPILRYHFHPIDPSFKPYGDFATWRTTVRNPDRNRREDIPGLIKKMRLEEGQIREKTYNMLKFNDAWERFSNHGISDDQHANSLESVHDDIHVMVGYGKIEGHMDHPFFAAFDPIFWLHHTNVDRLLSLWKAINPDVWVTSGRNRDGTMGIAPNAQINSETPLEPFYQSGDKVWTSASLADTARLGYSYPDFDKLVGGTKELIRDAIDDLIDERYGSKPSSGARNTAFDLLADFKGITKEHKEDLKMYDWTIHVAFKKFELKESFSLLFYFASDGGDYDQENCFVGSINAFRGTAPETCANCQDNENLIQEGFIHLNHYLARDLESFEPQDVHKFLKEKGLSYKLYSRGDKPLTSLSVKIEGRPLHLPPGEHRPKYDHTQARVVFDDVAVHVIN

[4] = target: T2, Tyrosinase (Agaricus bisporus); test: Activity of mushroom tyrosinase using TBC as substrate assessed as accumulation of p-quinone in presence of H2O2 spectrophotometric analysis
[5] = target: T2, Tyrosinase (Agaricus bisporus); test: Inactivation of mushroom tyrosinase using TBC as substrate assessed as reduction in p-quinone accumulation pre-incubated at 0.3 mM for shorter time duration during 0 to 500 secs by spectrophotometric analysis
[6] = target: T2, Tyrosinase (Agaricus bisporus); test: Inactivation of mushroom tyrosinase using TBC as substrate assessed as reduction in p-quinone accumulation pre-incubated at 0.3 mM for longer time duration during 0 to 500 secs by spectrophotometric analysis
[7] = target: T2, Tyrosinase (Agaricus bisporus); settings: 30 uM
Description: Inhibition of mushroom tyrosinase activity using TBC as substrate assessed as recovery of enzyme activity at 30 uM preincubated for 60 mins

[8] = substrate: CCOc1ccc(O)cc1; test: (§1) Substrate activity at mushroom tyrosinase assessed as Km for monophenolase activity in presence H2O2 by spectrophotometry based Michaelis-Menten plot analysis; settings: Agaricus bisporus
[9] = substrate: CCc1ccc(O)cc1O; test: as §1; settings: Agaricus bisporus
[10] = substrate: COc1ccc(O)cc1; test: as §1; settings: Agaricus bisporus
[11] = substrate: Cc1c(O)cccc1O; test: as §1; settings: Agaricus bisporus
[12] = substrate: Cc1ccc(O)cc1O; test: as §1; settings: Agaricus bisporus
[13] = substrate: N[C@@H](Cc1ccc(O)cc1)C(=O)O; test: as §1; settings: Agaricus bisporus
[14] = substrate: Oc1ccc(O)cc1; test: as §1; settings: Agaricus bisporus
[15] = substrate: Oc1cccc(O)c1; test: as §1; settings: Agaricus bisporus
[16] = substrate: Oc1ccccc1; test: as §1; settings: Agaricus bisporus
[17] = substrate: CCOc1ccc(O)cc1; test: (§2) Substrate activity at mushroom tyrosinase assessed as Kcat for monophenolase activity in presence H2O2 by spectrophotometry based Michaelis-Menten plot analysis; settings: Agaricus bisporus
[18] = substrate: CCc1ccc(O)cc1O; test: as §2; settings: Agaricus bisporus
[19] = substrate: COc1ccc(O)cc1; test: as §2; settings: Agaricus bisporus
[20] = substrate: Cc1c(O)cccc1O; test: as §2; settings: Agaricus bisporus
[21] = substrate: Cc1ccc(O)cc1O; test: as §2; settings: Agaricus bisporus
[22] = substrate: N[C@@H](Cc1ccc(O)cc1)C(=O)O; test: as §2; settings: Agaricus bisporus
[23] = substrate: Oc1ccc(O)cc1; test: as §2; settings: Agaricus bisporus
[24] = substrate: Oc1cccc(O)c1; test: as §2; settings: Agaricus bisporus
[25] = substrate: Oc1ccccc1; test: as §2; settings: Agaricus bisporus
[26] = substrate: CCOc1ccc(O)cc1; test: (§3) Substrate activity at mushroom tyrosinase assessed as Kcat/Km ratio for monophenolase activity in presence H2O2 by spectrophotometry based Michaelis-Menten plot analysis; settings: Agaricus bisporus
[27] = substrate: CCc1ccc(O)cc1O; test: as §3; settings: Agaricus bisporus
[28] = substrate: COc1ccc(O)cc1; test: as §3; settings: Agaricus bisporus
[29] = substrate: Cc1c(O)cccc1O; test: as §3; settings: Agaricus bisporus
[30] = substrate: Cc1ccc(O)cc1O; test: as §3; settings: Agaricus bisporus
[31] = substrate: N[C@@H](Cc1ccc(O)cc1)C(=O)O; test: as §3; settings: Agaricus bisporus
[32] = substrate: Oc1ccc(O)cc1; test: as §3; settings: Agaricus bisporus
[33] = substrate: Oc1cccc(O)c1; test: as §3; settings: Agaricus bisporus
[34] = substrate: Oc1ccccc1; test: as §3; settings: Agaricus bisporus

Molecule: CCc1ccc(O)cc1O
- IC50 (Tyrosinase [1]): 1.9 µM
- IC50 (Tyrosinase [2]): 1.1 µM
- Activity [3]: Active
- Activity [4]: Active
- inhibition [5]: Active
- inhibition [6]: inactive
- inhibition [7]: inactive

Molecule: Cc1ccc(O)cc1O
- IC50 (Tyrosinase [1]): 9.31 µM
- IC50 (Tyrosinase [2]): 3.3 µM
- Activity [4]: Active
- inhibition [5]: Active
- inhibition [6]: inactive

Molecule: Oc1cccc(O)c1 [RESORCINOL]
- IC50 (Tyrosinase [1]): 1130 µM
- IC50 (Tyrosinase [2]): 652 µM
- Activity [3]: Active
- Activity [4]: Active
- inhibition [5]: Active
- inhibition [6]: inactive

Molecule: Cc1c(O)cccc1O
- IC50 (Tyrosinase [1]): 1420 µM
- IC50 (Tyrosinase [2]): 717 µM
- Activity [3]: Active
- Activity [4]: Active

B1: Tyrosinase (Agaricus bisporus), O42713 (protein)
chain: MSLIATVGPTGGVKNRLNIVDFVKNEKFFTLYVRSLELLQAKEQHDYSSFFQLAGIHGLPFTEWAKERPSMNLYKAGYCTHGQVLFPTWHRTYLSVLEQILQGAAIEVAKKFTSNQTDWVQAAQDLRQPYWDWGFELMPPDEVIKNEEVNITNYDGKKISVKNPILRYHFHPIDPSFKPYGDFATWRTTVRNPDRNRREDIPGLIKKMRLEEGQIREKTYNMLKFNDAWERFSNHGISDDQHANSLESVHDDIHVMVGYGKIEGHMDHPFFAAFDPIFWLHHTNVDRLLSLWKAINPDVWVTSGRNRDGTMGIAPNAQINSETPLEPFYQSGDKVWTSASLADTARLGYSYPDFDKLVGGTKELIRDAIDDLIDERYGSKPSSGARNTAFDLLADFKGITKEHKEDLKMYDWTIHVAFKKFELKESFSLLFYFASDGGDYDQENCFVGSINAFRGTAPETCANCQDNENLIQEGFIHLNHYLARDLESFEPQDVHKFLKEKGLSYKLYSRGDKPLTSLSVKIEGRPLHLPPGEHRPKYDHTQARVVFDDVAVHVIN
- Km [8]: 170 µM
- Km [9]: 117 µM
- Km [10]: 80 µM
- Km [11]: 2700 µM
- Km [12]: 203 µM
- Km [13]: 210 µM
- Km [14]: 920 µM
- Km [15]: 460 µM
- Km [16]: 700 µM
- kcat [17]: 132 s⁻¹
- kcat [18]: 6 s⁻¹
- kcat [19]: 184 s⁻¹
- kcat [20]: 9.94 s⁻¹
- kcat [21]: 7.73 s⁻¹
- kcat [22]: 7.9 s⁻¹
- kcat [23]: 102 s⁻¹
- kcat [24]: 18.3 s⁻¹
- kcat [25]: 12.7 s⁻¹
- kcat/Km [26]: 776000 M⁻¹ s⁻¹
- kcat/Km [27]: 51300 M⁻¹ s⁻¹
- kcat/Km [28]: 2.3e+06 M⁻¹ s⁻¹
- kcat/Km [29]: 3700 M⁻¹ s⁻¹
- kcat/Km [30]: 38100 M⁻¹ s⁻¹
- kcat/Km [31]: 37600 M⁻¹ s⁻¹
- kcat/Km [32]: 110000 M⁻¹ s⁻¹
- kcat/Km [33]: 39900 M⁻¹ s⁻¹
- kcat/Km [34]: 18100 M⁻¹ s⁻¹
